For 9 molecules, koff results are on record in patent US20210363269A1 (ALX ONCOLOGY, published 2021).

Common to all, as to assay: SPR, Langmuir fit
Test [1] concerns the target T1, cynomolgus SIRP-α D1 domain (cyno2) (cynomolgus monkey, UniProt Q5TFQ8 30-148 (human entry), limits assumed).
T1 chain: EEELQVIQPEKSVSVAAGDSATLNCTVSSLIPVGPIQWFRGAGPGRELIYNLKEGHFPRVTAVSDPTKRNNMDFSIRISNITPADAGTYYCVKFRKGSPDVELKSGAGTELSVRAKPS
The procedure, abridged:
(§1)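 Dissociation rate constants (koff) were measured on a ProteOn XPR36 instrument by Langmuir model fitting. Antibody clones in scFv-Fc format were captured from pre-filtered culture media onto a GLC chip with about 4000 RU of amine-coupled anti-human IgG Fc. SIRP analytes ran in PBS pH 7.4 with 0.01% Tween-20 at 25° C, and the model used was 1:1, applied to data double-referenced against interspot and buffer-blank responses.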

The target in test [2] is T2, C57BL/6 mouse SIRP-α D1 domain (mouse (C57BL/6 strain), UniProt P97797 32-148).
T2 sequence: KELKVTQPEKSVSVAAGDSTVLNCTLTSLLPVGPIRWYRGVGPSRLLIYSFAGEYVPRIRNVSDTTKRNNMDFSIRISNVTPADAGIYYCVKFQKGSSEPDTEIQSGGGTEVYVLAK
The procedure, abridged: as §1

Test [3] deals with T3, cynomolgus SIRP-α D1 domain (cyno1) (cynomolgus monkey, UniProt Q5TFQ8 30-148 (human entry), limits assumed).
T3 chain: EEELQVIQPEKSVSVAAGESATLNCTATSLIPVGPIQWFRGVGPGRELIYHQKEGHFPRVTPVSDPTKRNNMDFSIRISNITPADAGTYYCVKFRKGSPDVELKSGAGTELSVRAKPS
An outline of the steps: as §1

Test [4] addresses T4, human SIRPβ isoform 1 (human, UniProt O00241 30-148).
T4 construct: also called SIRPb; sirpb1
An outline of the steps: as §1

Test [5] addresses T5, NOD mouse SIRP-α D1 domain (mouse (NOD strain)).
T5 chain: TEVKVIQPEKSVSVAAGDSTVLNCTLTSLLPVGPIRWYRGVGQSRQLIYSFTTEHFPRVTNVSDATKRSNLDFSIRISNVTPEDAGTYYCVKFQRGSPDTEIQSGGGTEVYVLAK
An outline of the steps:
as §1

Test [6] addresses T6, human SIRP-α v2 D1 domain (human).
T6 construct: also called human v2
An outline of the steps: as §1

For test [7], the target named is T7, high affinity SIRP-α D1 variant CV1-3.
T7 chain: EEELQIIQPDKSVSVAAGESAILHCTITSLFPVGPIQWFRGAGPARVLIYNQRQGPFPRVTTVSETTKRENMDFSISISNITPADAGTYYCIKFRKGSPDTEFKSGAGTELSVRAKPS
The procedure, abridged: as §1

Test [8] concerns the target T8, mouse 129 SIRP-α D1 domain (mouse (129 strain), UniProt P97797 32-150).
T8 construct: also called m129
T8 chain: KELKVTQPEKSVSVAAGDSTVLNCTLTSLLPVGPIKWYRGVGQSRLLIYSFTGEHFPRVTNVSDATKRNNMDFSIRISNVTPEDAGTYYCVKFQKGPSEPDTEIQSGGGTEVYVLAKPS
An outline of the steps:
as §1

Test [9] concerns the target T9, human SIRPγ isoform 1 (human, UniProt Q9P1W8 29-147).
T9 construct: also called SIRPg; sirpg
The procedure, abridged:
as §1

Test [10] addresses T10, human SIRP-α v1 D1 domain (human, UniProt P78324 31-149).
T10 construct: also called human v1
The procedure, abridged:
as §1

T10 sequence (P78324 31-149 limits assumed): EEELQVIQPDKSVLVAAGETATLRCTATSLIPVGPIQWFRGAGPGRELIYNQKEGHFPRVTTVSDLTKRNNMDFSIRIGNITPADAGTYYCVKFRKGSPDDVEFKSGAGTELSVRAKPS
T9 sequence (Q9P1W8 29-147 limits assumed): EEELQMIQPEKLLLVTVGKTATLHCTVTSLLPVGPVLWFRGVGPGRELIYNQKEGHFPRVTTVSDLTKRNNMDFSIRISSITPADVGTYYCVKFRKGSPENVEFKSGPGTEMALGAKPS
T4 sequence (O00241 30-148 limits assumed): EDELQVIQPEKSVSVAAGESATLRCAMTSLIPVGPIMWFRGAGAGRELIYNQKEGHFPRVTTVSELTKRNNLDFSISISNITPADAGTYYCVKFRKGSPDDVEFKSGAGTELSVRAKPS
T6 sequence (chain, as listed by the source limits assumed): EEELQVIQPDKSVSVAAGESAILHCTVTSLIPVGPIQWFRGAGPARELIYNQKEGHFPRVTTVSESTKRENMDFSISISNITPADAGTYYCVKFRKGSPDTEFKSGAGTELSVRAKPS

B1: S16 (scFv, V domains shown)
VH: DVQLVESGGGVVRPGESLRLSCAVSGFRFSSYAMSWVRQAPGKGLEWVSGISSGGDTYYVDSVKGRFTISRDNSKNTLYLQVNSLTAEDTAIYYCARETWNHLFDYWGLGTLVTVSS
VL: ALTQPASVSANLGETVKITCSGGDSSSHYYGWYQQKSPGSAPVTVIYSDDERPSDIPSRFSGSASGSTATLTITGVRVEDEAIYYCGAYDGSTYANTFGAGTTLTVL
notes: also called clone 16
The term koff denotes a measure of how fast the partners let go of each other. Low values mean a long-lived complex, high ones a short-lived complex. On to B1, for which the koff in test [1] stood at 0.000138 s⁻¹; in test [2], 0.00235 s⁻¹; in test [3] it was 0.000132 s⁻¹; in test [4], 0.000113 s⁻¹; in test [5], 0.00128 s⁻¹; in [6], 0.000111 s⁻¹. In addition, the dissociation rate constant (koff) in test [7] turned out to be 0.0001 s⁻¹; in [8] it was 0.000176 s⁻¹; in [9], 8.17e-05 s⁻¹; in test [10], 6.22e-05 s⁻¹.

B2: S30 (scFv, V domains shown)
VH: DVQLVESGGGVVRPGESLRLSCEASGFTFSSDAMSWVRQAPGKGLEWVSGISSGSSTYYGGSVKGRFTISRDNSKNTLYLQMNSLTAEDTAVYYCARETWNHLFDYWGLGTLVTVSS
VL: ALTQPASVSASPGETVEITCSGGSDSSYYYGWYQQKSPGSAPVTVIYSDNKRPSNIPSRFSGSASGSTATLTITGVRVEDEAVYYCGGYDYSTYTNPFGAGTTLTVL
notes: also called clone 30
Consider B2, for which the off-rate (koff) in test [1] was 0.000366 s⁻¹; in test [2] it was 0.00244 s⁻¹; in test [3] it was 0.000335 s⁻¹; in test [4], 0.000237 s⁻¹; in test [6] it was 0.000188 s⁻¹; in test [7], 0.000142 s⁻¹. The values for the koff in test [8], in test [9] and in test [10] were 0.000476 s⁻¹, 0.000193 s⁻¹ and 0.000132 s⁻¹, respectively.

B3: S55 (scFv, V domains shown)
VH: DVQLVESGGGVVRPGESLRLSCAVSGFRFSSYAMSWVRQAPGKGLEWVSGISSGGDTYYVDSVKGRFTISRDNSKNTLYLQVNSLTAEDTAIYYCARETWNHLFDYWGLGTLVTVSS
VL: ALTQPASVSANLGETVEITCSGGDSSSHYYGWYQQKSPGSAPVTVIYSDDERPSDIPSRFSGSASGSTATLTITGVRVEDEAIYYCGAYDGSTYANTFGAGTTLTVL
notes: also called clone 55
With B3, the koff stood at 0.000116 s⁻¹ in [1]; 0.00197 s⁻¹ in test [2]; 9.63e-05 s⁻¹ in test [3]; 6.48e-05 s⁻¹ in test [4]; 0.00119 s⁻¹ in test [5]; 7.16e-05 s⁻¹ in [6]. Moreover, the koff in [7] is 6e-05 s⁻¹; in [8], 0.000143 s⁻¹; in test [9] it was 4.69e-05 s⁻¹; in test [10], 4.18e-05 s⁻¹.

B4: S27 (scFv, V domains shown)
VH: DVQLVESGGGVVRPGESLRLSCAVSGFRFSSYAMSWVRQAPGKGLEWVSGISSGGDTYYVDSVKGRFTISRDNSKNTLYLQVNSLTAEDTAIYYCARETWNHLFDYWGLGTLVTVSS
VL: ALTQPASVSADLGETVKITCSGGDSSSHYYGWYQQKSPGSAPVTVIYSDDERPSDIPSRFSGSASGSTATLTITGVRVEDEAIYYCGAYDGSTYANTFGAGTTLTVL
notes: also called clone 27; scFv-Fc form of AB27
Turning to B4, the dissociation rate constant (koff) in test [1] was 0.000161 s⁻¹; in [2], 0.00184 s⁻¹; in test [3], 0.000138 s⁻¹; in test [4] it was 8.97e-05 s⁻¹; in [5], 0.0013 s⁻¹; in test [6], 9.97e-05 s⁻¹. Also, the koff was 8.94e-05 s⁻¹ in test [7], 0.000136 s⁻¹ in test [8], 9.46e-05 s⁻¹ in [9] and 5.81e-05 s⁻¹ in test [10].

B5: S59 (scFv, V domains shown)
VH: DVQLVESGGGVVRPGESLRLSCAVSGFRFSSHAMSWVRQAPGKGLEWVSGISSGGDTYYVDSVKGRFTISRDNSKNTLYLQVNSLTAEDTAIYYCARETWNHLFDYWGLGTLVTVSS
VL: ALTQPASVSANLGETVKITCSGGDSSSHYYGWYQQKSPGSAPVTVIYSDDERPSDIPSRFSGSASGSTATLTITGVRVEDEAIYYCGAYDGSTYANTFGAGTTLTVL
notes: also called clone 59
Turning to B5, the koff in [1] amounted to 0.000113 s⁻¹; in test [2] it was 0.00239 s⁻¹; in [3], 0.000106 s⁻¹; in test [4], 0.000107 s⁻¹; in test [5] it was 0.00135 s⁻¹; in [6], 8.63e-05 s⁻¹. The dissociation rate constant (koff) was determined as 8.19e-05 s⁻¹ in test [7], 0.000209 s⁻¹ in [8], 4.28e-05 s⁻¹ in test [9] and 4.98e-05 s⁻¹ in test [10].

B6: S76 (scFv, V domains shown)
VH: DVQLVESGGGVVRPGESLRLSCAASGFTFSSYAMSWVRQAPGKGLEWLAGISAGGSDTYYIDSVKGRFTISRDNSKNSLYLQMNSLTAEDTAVYYCARETWNHLFDYWGLGTLVTVSS
VL: ALTQPASVSANPGETVKITCSGGDWYSTYYGWYQQKSPGSAPVTVIHSDDKRPSDIPSRFSGSASGSAATLTITGVRVEDEAVYYCAGYDGRTYINTFGAGTTLTVL
notes: also called clone 76
Turning to B6, the koff is 0.000269 s⁻¹ in test [1]; 0.000998 s⁻¹ in test [2]; 0.000277 s⁻¹ in test [3]; 0.000187 s⁻¹ in [4]; 0.000576 s⁻¹ in test [5]; 0.000209 s⁻¹ in test [6]. In addition, the koff in test [7] came out at 0.000155 s⁻¹; in test [8] it was 0.000179 s⁻¹; in test [9], 0.000177 s⁻¹; in [10], 0.00014 s⁻¹.

B7: S56 (scFv, V domains shown)
VH: DVQLVESGGGVVRPGESLRLSCAASGFTFSSYAMSWVRQAPGKGLEWLAGISAGGSDTYYIDSVKGRFTISRDNSKNSLYLQVNSLTAEDTAVYYCARETWNHLFDYWGLGTLVTVSS
VL: ALTQPASVSANPGETVKITCSGGGYYSTYYGWYQQKSPGSAPVTVIHSDDKRPSDIPSRFSGSASGSAATLTITGVRVEDEAVYYCAGYDGRTYINTFGAGTTLTVL
notes: also called clone 56
For B7, the koff in [1] was determined as 0.00028 s⁻¹; in [2], 0.00429 s⁻¹; in test [3], 0.000295 s⁻¹; in test [4], 0.000362 s⁻¹; in [5] it was 0.00106 s⁻¹; in test [6], 0.000286 s⁻¹. Besides, the off-rate constant (koff) is 0.000203 s⁻¹ in test [7], 0.000406 s⁻¹ in [8], 0.000215 s⁻¹ in [9] and 0.000228 s⁻¹ in test [10].

B8: S23 (scFv, V domains shown)
VH: DVQLVESGGGVVRPGESLRLSCAASGFTFSSHAMSWVRQAPGKGLEWLAGISAGGSDTYYIDSVKGRFTISRDNSKSSLYLRMNSLTAEDTAVYYCARETWNHLFDYWGLGTLVTVSS
VL: ALTQPASVSANPGETVKITCSGGDYYSTYYAWYQQKSPGSAPVTVIHSDDERPSDIPSRFSGSASGSAATLIITGVRVEDEAVYFCGGYDGRTYINTFGAGTTLTVL
notes: also called clone 23
Consider B8, for which the koff amounted to 0.000183 s⁻¹ in [1]; 0.00132 s⁻¹ in test [2]; 0.00016 s⁻¹ in test [3]; 0.000114 s⁻¹ in test [4]; 0.000823 s⁻¹ in test [5]; 0.000135 s⁻¹ in test [6]. For the same molecule, the koff turned out to be 0.000106 s⁻¹ in test [7], 0.000134 s⁻¹ in [8], 0.000104 s⁻¹ in test [9] and 8.35e-05 s⁻¹ in test [10].

B9: S17 (scFv, V domains shown)
VH: DVQLVESGGAVVRPGESLRLSCAASGFTFSSYAMSWVRQAPGKGLEWLAGISAGGSDTYYIDSVKGRFTISRDNSENSLYLQMNSLTAEDTAVYYCARETWNHLFDYWGLGTLVTVSS
VL: ALTQPASVSANPGETVKITCSGGDWYSTYYGWYQQKSPGSAPVTVIHSDDKRPSDIPSRFSGSASGSAATLTITGVRVEDEAVYYCAGYDGRTYINTFGAGTTLTVL
notes: also called clone 17
For B9, the koff worked out at 0.000207 s⁻¹ in [1]; 0.00113 s⁻¹ in test [2]; 0.000193 s⁻¹ in test [3]; 0.000125 s⁻¹ in test [4]; 0.000612 s⁻¹ in test [5]; 0.000197 s⁻¹ in test [6]. Moreover, the koff turned out to be 0.000154 s⁻¹ in test [7], 0.000234 s⁻¹ in test [8], 0.000102 s⁻¹ in test [9] and 0.000124 s⁻¹ in test [10].
